What was measured:
human CD63 (human) [1] = molecular target: human CD63 (human) (UniProt P08962); experiment: ECL, U87MG cells; signal < 100 RLU, classed non-binder
human CD63 (human) [2] = molecular target: human CD63 (human) (UniProt P08962); experiment: imaging of stained T47D cells, 10 ug/mL antibody
human CD63 (human) [3] = molecular target: human CD63 (human) (UniProt P08962); experiment: flow cytometry, HEK293 cells

Sequence of human CD63 (human) (P08962 2-238 limits assumed): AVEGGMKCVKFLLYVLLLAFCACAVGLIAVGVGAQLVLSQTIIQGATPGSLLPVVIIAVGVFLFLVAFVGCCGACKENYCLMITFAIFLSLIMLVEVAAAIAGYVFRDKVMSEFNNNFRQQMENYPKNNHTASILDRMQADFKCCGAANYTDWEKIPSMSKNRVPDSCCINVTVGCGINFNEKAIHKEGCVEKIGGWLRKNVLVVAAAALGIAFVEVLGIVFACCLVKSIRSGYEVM

Substance | binding ratio at 3.7 nM vs NIH3T3 (human CD63 (human) [1]) [fold] | Total RFU at 4C (human CD63 (human) [2]) [RFU] | Total RFU at 37C (2 h) (human CD63 (human) [2]) [RFU] | S/N (MFI over no-antibody wells) (human CD63 (human) [3])
Isotype Control 1 (antibody) |  |  |  | 1.4
Isotype Control 2 (antibody) |  |  |  | 1.5

Second part, the substance after the results:

binding ratio at 3.7 nM vs NIH3T3 (human CD63 (human) [1]) [fold] | Total RFU at 4C (human CD63 (human) [2]) [RFU] | Total RFU at 37C (2 h) (human CD63 (human) [2]) [RFU] | S/N (MFI over no-antibody wells) (human CD63 (human) [3]) | Substance
4 | 138000 | -80500 |  | Human IgG4 isotype control (antibody)
 | -93900 | 57400 |  | mIgG1 Isotype control (antibody)
 | -73400 | 65400 |  | mIgG2a Isotype control (antibody)
